Laboratory results reported in the domain aggregation screens of Martell et al. (2025).

test: soluble fraction after stress (log2 fold change); higher = more stays soluble; pooled small domains, quantitative proteomics; conditions: stress: pH 4
Outline: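 Aggregation propensity here comes from the fold change in the soluble amount of each small protein domain after acid stress, measured in pooled custom libraries by high-throughput quantitative proteomics. The acid stress was pH 4. On the log2 scale, higher values mean more of the domain stayed soluble.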

Sequence	soluble fraction (log2)
HMDAKSRFQEWVQAETGITPTYRIIGDSGPDHAKTFIAQVLLGERVVGEGVGSSKRAAEQAAAQAALAAM	-0.346
HMGMSENIDKVAGGIPYKVEGNKAIINEPLDDATKERLMGKAKEHGYHAAPNQAGGITITLK	0.0104
HMNLFNEIEKQYQALQDRSSASLVDLRHLLLDIEELVNSPDYQALAPDQRSTLQAARKELMRRIQKQEN	-0.193
HMGTTIAMSKLKQVLRWKEEGYSNRKIAQLVGLNKETVNNYISRANADSLSQKELLQLDDFVLDIRLRG	-0.138
HMKEIPTKKGDMLEIYEANGKYILKYPTFNITMPEVVKEIPKEAVDSYLAGKHDGEELINYANFGFWKS	0.315
HMALQLPFSFAKRHKVLVESAHEPVKVYHTPSTDFAVFAEVRRFLDQTFVLEEIAENRFEELLTSSFQRD	-1.46
HMVDIQTGQKVRIHTSQFAGKIGNITALNVKSAELPNGIRTATASILMQSNENVMLPVSNFDIIE	-0.044
HMNSKMTYSDLIGNIEQGNVSSVELASDGKSATVTLTDNSQKQVNIPSLDSFVTYVQDHIKAGTLSVEE	0.109
HMARSKSRQSSVLESVPGLGPSRRRNLLRHFGGLQGVVKAGVEDLMAVRGISRTLAETVYDHLHPGS	0.22
HMGIDSSVYVEARYELGHLYLKQKKYAAAYASFKEILDMYASTTPGVLPGAYNKLAEIGMKRIPKNKL	-0.182
HMEFQISLAAARVNANMTQEDTARAMKVSKTTIVNWEKGKVIPGIPEVEMMSRLYGIPQDYIFLP	-0.796
HMITVEAPMPGKVLSVNVKAGDKVEAGDVLLILEAMKMQNEIMAPEDGTVSDVRVSAGDTVATGDVMVV	-0.33
HMNLDVEQIKKEALNQLIEIGNENDGIVTIKDFKKIDDISSLDEDDIEDIRNLLIENNIEIFE	-0.641
HMPSIGKNILYYRKKRNMTIDELSKKSGVSKSMLSQVEQEKTNPTVVTVWKIARSLDVSINQLLQT	0.136
HMSFTDLILKSANAIDEMGGIWENGKQILGEKAIAIHEEIVDNGLNPDKDGFYKLANGQMIQYG	-0.85
HMIADDLKSLEGVDQDMLRDLAEAGINTRDDLAELAIDELIEITGVSTEEAEKVIMAARAHWFEEES	-1.74
HMKQETLNEIGTKIRKLRESKNLSIQEFADKLEMEYNNVIRIEKGRTNFTIGTLVKIANSLEVNLKDI	-1.01
HMNTIIIDILPKGLSIAGNQTEPKSLIQQLLMARRADPAQPILLRPAIAVPVQNVVELIDRLTAAGI	-0.412
HMEWNPEKQHLLENYITNYSRQLNDTGLFYKNLDWNYIFNLVGVDDQEFLMLKIDEIYDESINVY	-1.63
HMTPKVDLTVAEDGSASAVIAGLRVEIDAAGKVTAVAPADGTTDLSSVAPEAVKEAMDNALAAYTASKG	0.167
HMEEVRFPLKKEILLWALKEAQVDEDEVFRKFTNLEKWINGEKHPTFKQIESLANYLKIPFGYMFLEKPPI	-1.47
HMGNEEEEAIREAEEAIERVLEYGEPQELNPQNGFIRRLQHQLAEKSHLSSESVGVEPYRRVRISK	-0.00812
HMQKWILVNKQGRLSGILDHRAFNTRESATAWFQRTSDISGGTIKIDDYYYVLKNEEYKLLKE	-1.34
HMNKADFLRKLDRELSVLDQEERKEILSFYEERFYTGTNYENKTELDIINELENPEIIAKNVLEEYGV	-1.45
HMTKPAEVRIDELMNAAQTLFLAKGVEATTISEIIASVGVAKGTFYHYFESKQHIVEALKKRYID	-1.03
HMGDERDRLLLARGKRIYQELIGSDRENVAAALREFEAVLAVNNRRAIHVMRQRLAELFGVYEEFLNEEFL	-1.29

Sequence	soluble fraction (log2)
HMIHIGAQEALGEFQDEEGNLTASKKEVVAALVKKSKEVSFPTSYEYEVAARMAADEYNDAGQRMA	-0.079
HMTLYITDQMRKILDYVATNQEIDEKAVMDLLSIQRTRAYLIAKKMTDIGLLQVQGRGKTKTYRLAARS	-0.285
HMVEVVDAEKLEERLSKVFSAAVLLEIYNENPAHGKEYAYLFTARKNAVEEMIENGQMKRETWEAK	-1.91
HMPVSDLQSALRNTLSKGDATDPAFRQRVYRAAMDALERATGSESDPQRRSEQKQRLIAVIRDMEASYRR	0.101
HMDHKSQLQEWAQSTLGETPRYVTIAETGPDHDKELTVELIIGRKSYSIAKGKSKKQAEQSAARIALGLLM	-0.504
HMQEINLIGVTGNDLERSALVKLLDGEIIKLSVGDNLNGGRVVDISAVTLTYLKSGQSITLKLPK	0.116
HMNSEFPFNGGRIVDNVPANRLQIFFDEKPDADVRTRLKQNGFRWAPNSGAWQSYRHGYTLDWARREFNA	-0.197
HMITDQQKEQLSSLLKQAEAALAKAAANDQVLAAHKDEAVELLKSTSATSADAADLINELTELLKPYQ	-0.605
HMNIGSKLRYLIEEANITQRQLADALHISPSALNGYINQGKEPDYATLVRIADYFHTSTDYLLGHSNIR	-0.202
HMLSYIELTVDNTSKASYIMTDKMKINNFKIIGNNTIRVYENKVSPQDISRTLSMNNVSIEALGRKS	-0.253
HMENPLVEVVVPVLNEERILKANIETLHHFLRTQPGFNFRITIADNGSTDKTQAIANDLTNSHAVIRV	-0.441
HMHSDSEIEKGYTDDGQKLSNVNGVYMTKSEMYNKGIVEKDPNTGEEVMGRNRVNPVTGELE	0.204
HMKTKKYKGVYKDSKGKIYFQIELGVDPITGKRIQKKGRKNQQGLPFNSFKEAYEEILRLKHEFVNSTIN	0.00285
HMYEDNERSLVPIVQNFLKEKKILLSNQSINLIVQRSGGDRINLYNELQKIESFSKNQKKIDIGDIIKLTN	0.169
HMTATWLTYYRIKAGLTQKRLAELAGLNIRQVQKIENGETLAGNTTAKNLLALADALGIDPHKL	-0.381
HMGTGVEQGKQYRTLKRDFDGASGIKVNGDFYRLRTSDTGMTELPAGTEVTFERFDGTTAVVHT	0.196
HMTDLEDDEKKVYRLIVESGEGIDFDTLSERSGFSATELPSILLFLMMKEMIDELPGKIYRYSE	-0.327
HMVINVNEIIRRIKELKTFKTDRQVADFLGVSKATVSNWMARNSIDFPLLINKLDGVDLTWLLTGRGTPE	-0.121
HMRQYTPEQLETAVLVLEEVRQGRRLDRALRSHPMPDGRLIAKHVLVAAYRKLVAEGTWKEDPEFLSRIRM	0.116
HMGTHPGIDSGIISDILALKKELPTRSAAKIITMLTLAGKMEENSIHVKTVNRILYQYGYTRDTLS	-0.222
HMNKYQFESKIHIYRATKRMTQQELADLVGVSRQTIMQLERNRYNPSMMLAYGIAKVFDVTIEDLFDFSEV	0.0457
HMGIYFIIAAKNQENNIEEFIRTTLFRIVYGKEESINNITLVDLKSKDNTKNIMEEIARENENVKV	-0.696
HMKKPIYLTIANDIEKKIFNNDYPKNERLPSERNLAEEYGVTRMTIRNSIEYLVSKGLLEKRLGSGNYVKR	≥ 0.43
HMHAPLEVGSVVRIEGQKALGTILSISDREAIVALGALKTTIPLKRLHGVSPAEAQRHLRKTTPAQAVR	0.0546
HMGTGADQVSWKTGDKVTHKKWGEGTVVKVSGSGNDKELDIAFPQQGVKRLLASFAPIKKVT	-0.0102
HMKEILVGVEPLSKKQIIIKKGIKGRSDYIIFEKKNYGLPENLKPEEVSIEIALKIIDEKKKRKA	0.22

Sequence	soluble fraction (log2)
HMPYFLKQSNTRSKGLYLQIYHSFYVPGKGSRNKSYKAIGYVSELIKNGIEDPITYAKNLVDELNNNSSTP	0.226
HMSNIAQRLVLENALAKLNQEQQTIIDLRIIKGYSVAETARLLGKTESAVRTAQYRALKELAGILEED	-0.0342
HMADVLLKHGSSGDYVWDLQYRLKTLSLFDQEMTGYFGPHTRQAVVNFQRKYGLPADGVVGPATWRALRK	-0.551
HMNDITVNVEDSKLIVTSNNPEKLPLYIMDIQGHILDKSEITAGTYSFPISDRGTYIVRIGENVYKVI	0.186
HMATVGENIRRYRKAQNLSAAKLAEKVGLTQGAILHYERGIRTPGISQLEKIAHALNVSPRM	0.114
HMAIEGIFEKYQRRSDQLIPILQDVQKEFGYIAPESVRHISRYLRISENQIFGVSSFYAQFRFT	-0.422
HMIIVMASSKKEDVAHVVHKIEELGYKAHVIVGVERTVVAAVGDERGKERLISLEALPHVEKVFPILK	-0.167
HMGVIDTLSGPQKAAAILVAIGRPSASRLLKHFNAEDLRKLAGHARTLEPISPLDFEHLVKQFEDSFAEG	-0.745
HMDSDRAARLSSLTPQQFRVLRMVSEGQLNKQIAYQLNISEATVKSHVSAILQKLGVNSRTQAVILATRLD	0.147
HMYKLTYVVDGEVYLEETVSYGSKIAAAPAPEKEGYTFSGWEGLPEVMPAKDVTVSGSFTVN	-0.0428
HMVEQVEISILPGEYSDTISQKLLDAGLIDDKAAFSKYINDTNVDNLIQPGTFTVPKGASYEEVAKILT	-1.35
HMSDNYYSILGIETDATTDMIKRAYRRLSLELHPDRTKDNPILTEKYKKVNEAYGVLNDNDRKHIYDLQNI	-1.37
HMEGSRASMDGQVPGKTSYLEWLARQPAQRQDQVLGAERGRLFRAGEIDLADMFTDKGEWISLERLKQLS	-0.284
HMKQIEEIIARYTNENTPLMMILSDVQREYGYIPLDVQELISEKTGIPVAEIYGVVTFYSFFSL	-0.337
HMDKVVGSAGDVTSRITANSGEVKIDGQIWQARSYDETIAIEAGEKIEVFDLDGITLIVYPI	-1.19
HMTGQVASMVERLAQRLKDQPQDAEGWAMLARSYSVLGRHPEALQAYEKALALRKDDANLLADYADSLA	-0.729
HMGDVSGFLRGVLADGPVPAKTVFSEASGAGYSRDQIQRAARKIGVERRKTGMAGGWVWELEP	-0.038
HMHPELSDSQRTLIALMASGLKDEAIAVEMGVGARTVRRKVQELYELLGVRTRFQAGVAANQRGW	-0.606
HMLRISEEVWALVEKTLREDWSPEQVSGKLKASGISVSHERIYQHIYADKRVGGTLWTHLRR	-0.767
HMEQGDTQQEIREKILNLLADGERHMITELKNIRTDQPIDDDKIVGKTLKTLLDEEEVYMDGSYIQLNG	-0.997
HMSGEITVPNLIGVEAIQAKTLLIQAGFLIKEFYDLDSTQPAGVVIRQAPEAGTTQTIGKSVTITINKQ	0.106
HMGIYDQAAAAYIEFVESKNRAPKWNELIDALYKENGKDWIDRSTLHGLLRRKEFQELLAQKRKEHLV	-0.159
HMALEGTLARVSVRIPESGVGEIIFSLGGVRRSEAARSVSGRAIPRGTEVVILSYERGIATVQPYEELLTN	-0.256
HMIVIMAKESSPAELEGVKNRIESHPGLRPQVFDGVERIVVGVLGSIPPDLKDEIELLPGVIEVVPISK	-0.211
